Consider 19 molecules from patent US20190367592A1 (AC IMMUNE, published 2019).

The target of test [1] is T1, full-length human Tau (flTau) (human, UniProt P10636-8 1-441).
T1 construct: range 1-441; bought (SignalChem); also called human Tau-441
Nature of the test: SPR, hybridoma Ab on anti-IgG chip, flTau analyte. The procedure: Affinity of non-purified antibodies in serum-free hybridoma supernatants was estimated by surface plasmon resonance using a Biacore T-100 instrument (GE Healthcare, United Kingdom). Antibodies were immobilized onto an anti-IgG biosensor chip, and flTau (SignalChem, Canada) was used as the target analyte. Kinetic analysis was done using a 1:1 Langmuir fit model.
For affinity measurements to flTau, antibodies were measured using SPR on a Biacore instrument, with the KDs determined. Biacore affinity measurements were done by immobilizing antibodies on an anti-IgG chip and using flTau as the target analyte.
(Surface plasmon resonance follows binding to a sensor surface in real time, without labels.)

The target in test [2] is T2, recombinant human Tau monomer, 2N4R isoform (amino acids 2-441) (human, UniProt P10636-8 2-441).
T2 construct: range 2-441; N-terminal His-tag removed with TEV protease; also called monomeric Tau
Nature of the test: SPR screen, hIgG captured, Tau monomer analyte. The source says: Antibody 125B11-H3 was humanized onto VH3 and Vκ1 consensus frameworks. The heavy chain graft included murine residues at position 78 (Kabat numbering system). The Vκ1 graft included murine residues in framework positions 43 and 87. The light chain of 113F5-F7 was also humanized onto the Vκ1 framework, with additional murine residues at framework positions 43 and 87. Humanized variant heavy chains (125B11) and light chains (125B11 and 113F5-F7) were co-transfected in multiple combinations and purified in 96-well format as described above. Humanized variants were then screened for affinity for human Tau monomer using the Biacore human IgG capture kit, a Series S CM5 chip and a Biacore T200 instrument. Antibodies were diluted to 2 μg/ml and captured for 15 seconds at 10 μl/min. Association and dissociation of 0, 100 and 500 nM human Tau monomer in HBSP was monitored for 180s and 300s respectively at a flow rate of 40 μl/min. A 1:1 binding model was applied to the results (Table 9).

T1 sequence (P10636 other isoform, or with tags, fused parts or gaps limits assumed): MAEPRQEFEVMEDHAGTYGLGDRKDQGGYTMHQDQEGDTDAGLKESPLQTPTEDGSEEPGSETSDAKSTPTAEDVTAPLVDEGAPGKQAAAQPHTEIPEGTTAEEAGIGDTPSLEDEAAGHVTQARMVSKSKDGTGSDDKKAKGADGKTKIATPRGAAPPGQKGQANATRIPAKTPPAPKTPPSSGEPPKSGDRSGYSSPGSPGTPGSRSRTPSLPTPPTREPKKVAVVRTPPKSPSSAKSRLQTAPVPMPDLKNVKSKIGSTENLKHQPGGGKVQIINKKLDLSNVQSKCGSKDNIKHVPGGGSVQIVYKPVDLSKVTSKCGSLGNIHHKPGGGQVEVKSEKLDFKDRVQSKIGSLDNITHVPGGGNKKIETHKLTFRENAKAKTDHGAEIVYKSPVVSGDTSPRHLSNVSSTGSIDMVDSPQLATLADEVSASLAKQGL
T2 sequence (P10636 other isoform, or with tags, fused parts or gaps limits assumed): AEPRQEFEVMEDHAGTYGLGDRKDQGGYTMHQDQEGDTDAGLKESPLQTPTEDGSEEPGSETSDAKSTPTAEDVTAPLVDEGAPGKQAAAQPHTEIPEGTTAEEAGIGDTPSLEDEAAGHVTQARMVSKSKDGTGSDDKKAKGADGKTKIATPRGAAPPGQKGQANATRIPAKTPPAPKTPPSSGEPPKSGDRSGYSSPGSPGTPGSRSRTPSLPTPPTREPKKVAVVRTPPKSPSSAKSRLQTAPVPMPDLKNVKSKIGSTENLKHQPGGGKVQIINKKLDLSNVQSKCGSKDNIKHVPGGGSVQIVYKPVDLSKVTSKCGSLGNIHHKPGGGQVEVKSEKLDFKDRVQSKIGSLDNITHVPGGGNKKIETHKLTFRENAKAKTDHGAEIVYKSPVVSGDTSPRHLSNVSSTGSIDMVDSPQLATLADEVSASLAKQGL

B1: 63H3-D8 (antibody, V domains shown)
VH: QIQLVQSGPELKKPGETVKISCKASGYTFTSHGMSWVKQAPGKGLKWMGWINTYSGVPTYADDFKGRFAFSLETSASTAYLQINNLKNEDTATYFCARSELSWFAYWGQGTLVTVSA
VL: DIVMTQSPATLSVTPGDRVSLSCRASQSISDYLHWYQQKSHESPRLLIKYASQSISGIPSRFSGSGSGSDFTLSINSVEPEDVGVYYCQNGHSFPYTFGGGTKLEIK
notes: hybridoma supernatant
Broadly, the Kd is the free concentration of one partner at which half of the binding sites on the other are occupied at equilibrium, for simple one-to-one binding. In turn, B1 displayed a Kd in test [1] of 0.5 nM.

B2: hu125B11 HC3 + 125B11 LC2 (antibody, V domains shown)
VH: EVQLVESGGGLVQPGGSLRLSCAASRFIFSNYWMNWVRQAPGKGLEWVAQIRLKSDNYATHYAESVKGRFTISRDDSKNTLYLQMNSLRAEDTAVYYCTGGTTYWGQGTLVTVSS
VL: DIQMTQSPSSLSASVGDRVTITCKASQNVGTAVAWYQQKPGKAPKLLIYSASIRYTGVPSRFSGSGSGTDFTLTISSLQPEDFATYFCQQFRTYPYTFGQGTKVEIK
With B2, in test [2], the Kd amounted to 19 nM.

B3: hu125B11 HC3 + hu113F5-F7 LC1 (antibody, V domains shown)
VH: EVQLVESGGGLVQPGGSLRLSCAASRFIFSNYWMNWVRQAPGKGLEWVAQIRLKSDNYATHYAESVKGRFTISRDDSKNTLYLQMNSLRAEDTAVYYCTGGTTYWGQGTLVTVSS
VL: DIQMTQSPSSLSASVGDRVTITCKASQNVGTAVAWYQQKPGKSPKLLIYSASRRFSGVPSRFSGSGSGTDFTLTISSLQPEDFATYFCQQFSTYPYTFGQGTKVEIK
Take B3: the dissociation constant Kd in test [2] was 54 nM.

B4: hu125B11 HC3 + hu113F5-F7 LC3 (antibody, V domains shown)
VH: EVQLVESGGGLVQPGGSLRLSCAASRFIFSNYWMNWVRQAPGKGLEWVAQIRLKSDNYATHYAESVKGRFTISRDDSKNTLYLQMNSLRAEDTAVYYCTGGTTYWGQGTLVTVSS
VL: DIQMTQSPSSLSASVGDRVTITCKASQNVGTAVAWYQQKPGKSPKLLIYSASRRFSGVPSRFSGSGSGTDFTLTISSLQPEDFATYYCQQFSTYPYTFGQGTKVEIK
As for B4, the dissociation constant (Kd) in test [2] was found to be 54 nM.

B5: hu125B11 HC4 + 125B11 LC1 (antibody, V domains shown)
VH: EVQLVESGGGLVQPGGSLRLSCAASRFIFSNYWMNWVRQAPGKGLEWVAQIRLKSDNYATHYAESVKGRFTISRDNSKNTLYLQMNSLRAEDTAVYYCTGGTTYWGQGTLVTVSS
VL: DIQMTQSPSSLSASVGDRVTITCKASQNVGTAVAWYQQKPGKSPKLLIYSASIRYTGVPSRFSGSGSGTDFTLTISSLQPEDFATYFCQQFRTYPYTFGQGTKVEIK
With B5, the dissociation constant (Kd) in test [2] worked out at 15 nM.

B6: hu125B11 HC5 + 125B11 LC1 (antibody, V domains shown)
VH: EVQLVESGGGLVQPGGSLRLSCAASRFIFSNYYMNWVRQAPGKGLEWVAQIRLKSDNYATHYAESVKGRFTISRDDSKNTVYLQMNSLRAEDTAVYYCTGGTTYWGQGTLVTVSS
VL: DIQMTQSPSSLSASVGDRVTITCKASQNVGTAVAWYQQKPGKSPKLLIYSASIRYTGVPSRFSGSGSGTDFTLTISSLQPEDFATYFCQQFRTYPYTFGQGTKVEIK
Take B6: the dissociation constant Kd in test [2] stood at 85 nM.

B7: hu125B11 HC3 + hu113F5-F7 LC2 (antibody, V domains shown)
VH: EVQLVESGGGLVQPGGSLRLSCAASRFIFSNYWMNWVRQAPGKGLEWVAQIRLKSDNYATHYAESVKGRFTISRDDSKNTLYLQMNSLRAEDTAVYYCTGGTTYWGQGTLVTVSS
VL: DIQMTQSPSSLSASVGDRVTITCKASQNVGTAVAWYQQKPGKAPKLLIYSASRRFSGVPSRFSGSGSGTDFTLTISSLQPEDFATYFCQQFSTYPYTFGQGTKVEIK
In the case of B7, the equilibrium dissociation constant (Kd) in test [2] was found to be 55 nM.

B8: hu125B11 HC4 + hu113F5-F7 LC1 (antibody, V domains shown)
VH: EVQLVESGGGLVQPGGSLRLSCAASRFIFSNYWMNWVRQAPGKGLEWVAQIRLKSDNYATHYAESVKGRFTISRDNSKNTLYLQMNSLRAEDTAVYYCTGGTTYWGQGTLVTVSS
VL: DIQMTQSPSSLSASVGDRVTITCKASQNVGTAVAWYQQKPGKSPKLLIYSASRRFSGVPSRFSGSGSGTDFTLTISSLQPEDFATYFCQQFSTYPYTFGQGTKVEIK
On to B8, for which the Kd in test [2] stood at 44 nM.

B9: hu125B11 HC3 + hu113F5-F7 LC4 (antibody, V domains shown)
VH: EVQLVESGGGLVQPGGSLRLSCAASRFIFSNYWMNWVRQAPGKGLEWVAQIRLKSDNYATHYAESVKGRFTISRDDSKNTLYLQMNSLRAEDTAVYYCTGGTTYWGQGTLVTVSS
VL: DIQMTQSPSSLSASVGDRVTITCKASQNVGTAVAWYQQKPGKAPKLLIYSASRRFSGVPSRFSGSGSGTDFTLTISSLQPEDFATYYCQQFSTYPYTFGQGTKVEIK
For the molecule B9, the equilibrium dissociation constant (Kd) in test [2] is 65 nM.

B10: hu125B11 HC4 + hu113F5-F7 LC4 (antibody, V domains shown)
VH: EVQLVESGGGLVQPGGSLRLSCAASRFIFSNYWMNWVRQAPGKGLEWVAQIRLKSDNYATHYAESVKGRFTISRDNSKNTLYLQMNSLRAEDTAVYYCTGGTTYWGQGTLVTVSS
VL: DIQMTQSPSSLSASVGDRVTITCKASQNVGTAVAWYQQKPGKAPKLLIYSASRRFSGVPSRFSGSGSGTDFTLTISSLQPEDFATYYCQQFSTYPYTFGQGTKVEIK
B10: the Kd in test [2] was 51 nM.

B11: hu125B11 HC4 + hu113F5-F7 LC3 (antibody, V domains shown)
VH: EVQLVESGGGLVQPGGSLRLSCAASRFIFSNYWMNWVRQAPGKGLEWVAQIRLKSDNYATHYAESVKGRFTISRDNSKNTLYLQMNSLRAEDTAVYYCTGGTTYWGQGTLVTVSS
VL: DIQMTQSPSSLSASVGDRVTITCKASQNVGTAVAWYQQKPGKSPKLLIYSASRRFSGVPSRFSGSGSGTDFTLTISSLQPEDFATYYCQQFSTYPYTFGQGTKVEIK
Consider B11, for which the Kd in test [2] was determined as 47 nM.

B12: hu125B11 HC4 + hu113F5-F7 LC2 (antibody, V domains shown)
VH: EVQLVESGGGLVQPGGSLRLSCAASRFIFSNYWMNWVRQAPGKGLEWVAQIRLKSDNYATHYAESVKGRFTISRDNSKNTLYLQMNSLRAEDTAVYYCTGGTTYWGQGTLVTVSS
VL: DIQMTQSPSSLSASVGDRVTITCKASQNVGTAVAWYQQKPGKAPKLLIYSASRRFSGVPSRFSGSGSGTDFTLTISSLQPEDFATYFCQQFSTYPYTFGQGTKVEIK
Take B12: in test [2], the Kd stood at 47 nM.

B13: hu125B11 HC3 + 125B11 LC4 (antibody, V domains shown)
VH: EVQLVESGGGLVQPGGSLRLSCAASRFIFSNYWMNWVRQAPGKGLEWVAQIRLKSDNYATHYAESVKGRFTISRDDSKNTLYLQMNSLRAEDTAVYYCTGGTTYWGQGTLVTVSS
VL: DIQMTQSPSSLSASVGDRVTITCKASQNVGTAVAWYQQKPGKAPKLLIYSASIRYTGVPSRFSGSGSGTDFTLTISSLQPEDFATYYCQQFRTYPYTFGQGTKVEIK
As for B13, the equilibrium dissociation constant (Kd) in test [2] is 20 nM.

B14: hu125B11 HC4 + 125B11 LC3 (antibody, V domains shown)
VH: EVQLVESGGGLVQPGGSLRLSCAASRFIFSNYWMNWVRQAPGKGLEWVAQIRLKSDNYATHYAESVKGRFTISRDNSKNTLYLQMNSLRAEDTAVYYCTGGTTYWGQGTLVTVSS
VL: DIQMTQSPSSLSASVGDRVTITCKASQNVGTAVAWYQQKPGKSPKLLIYSASIRYTGVPSRFSGSGSGTDFTLTISSLQPEDFATYYCQQFRTYPYTFGQGTKVEIK
As to B14, the dissociation constant (Kd) in test [2] came to 15 nM.

B15: hu125B11 HC3 + 125B11 LC3 (antibody, V domains shown)
VH: EVQLVESGGGLVQPGGSLRLSCAASRFIFSNYWMNWVRQAPGKGLEWVAQIRLKSDNYATHYAESVKGRFTISRDDSKNTLYLQMNSLRAEDTAVYYCTGGTTYWGQGTLVTVSS
VL: DIQMTQSPSSLSASVGDRVTITCKASQNVGTAVAWYQQKPGKSPKLLIYSASIRYTGVPSRFSGSGSGTDFTLTISSLQPEDFATYYCQQFRTYPYTFGQGTKVEIK
Take B15: in test [2], the Kd came out at 20 nM.

B16: 26C1-C8 (antibody, V domains shown)
VH: EVHLQQSGAELVRSGASVKLSCTASGFNIKDYYMYWVKQRPEQGLEWIGWIDPENGDTEYFPKFQGKATMTADTSSKTAYLQLSSLTSEDTAVYYCNAWRARATNSALDYWGQGTSVTVSS
VL: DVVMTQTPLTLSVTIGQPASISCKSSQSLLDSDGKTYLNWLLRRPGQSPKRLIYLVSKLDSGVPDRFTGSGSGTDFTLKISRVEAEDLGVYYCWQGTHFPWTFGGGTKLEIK
notes: hybridoma supernatant
As to B16, in test [1], binding was characterised by a dissociation constant (Kd) of 4.3 nM.

B17: 61E7-C4 (antibody, V domains shown)
VH: EVQLVESGGDLVKPGGSLKVSCVASGFTFRSYGMSWVRQTPDKRLDWVATISSGGNYTYYPDSVKGRFTISRDNAKNTLYLQMSSLKSEDTAMYYCASSYSGAMDYWGQGTSVTVSS
VL: DTVMTQSPLSLPVSLGDQASISCRSSQSIVHSNGNTYLEWYLQKPGQSPKLLIYTVSNRFSGVPDRFSGSGSGTDFTLKISRVEAEDLGVYYCFQGSHVPWTFGGGTKLEIK
notes: hybridoma supernatant
In test [1], B17 came in with a Kd of 3.3 nM.

B18: 19F8-B1 (antibody, V domains shown)
VH: EVQLQQSGPELVKPGASVKMSCKASGYTFTDYYMKWVKQSHGKSLEWIGDLNPNNGGTLYNQKFKGQATLTVDKSSSTAYMQFNSLTSEDSAVYYCARSAGYGDSFAYWGQGTLVTVSA
VL: DVLMTQTPLSLPVSLGDQASISCRSSQNIVHSNGNTYLEWYLQKPGQSPKLLIYKVSNRFSGVPDRFSGSGSGTDFTLKISRVEAEDLGIYFCFQGSHVPPTFGGGTKLEIK
notes: hybridoma supernatant
Molecule B18 showed a Kd in test [1] of 2.9 nM.

B19: 24A11-D5 (antibody, V domains shown)
VH: EVQLQQSGPELVKPGASVKMSCKASGYTFTDYYMKWVKQSHGKSLEWIGDLNPKNGGIIYNQKFKGQATLTVDKSSSTAYMQLNSLTSEDSAVFYCARSGGYGDSFAYWGQGTLVTVSA
VL: DVLMTQTPLSLPVSLGDQASISCRSSQNIVHSNGNTYLEWYLQKPGQSPKLLIYKVSNRFSGVPDRFSGSGSGTDFTLKISRVEAEDLGIYFCFQGSHVPPTFGGGTKLEIK
notes: hybridoma supernatant
As for B19, binding in test [1] was put at a Kd of 2 nM.
